# According to publication PMC12489471, “A multi-dentate, cooperative interaction between endo- and exo-ribonucleases within the bacterial RNA degradosome” (Nucleic Acids Research, 2025):
# B1: RNase E 960 – 1061 wildtype: wildtype RNase E peptide 960–1061 (peptide)
# chain: VVETAEVVVAEPEVVAQPAAPVVAEVAAEVETVAAVEPEVTVEHNHATAPMTRAPAPEYVPEAPRHSDWQRPTFAFEGKGAAGGHTATHHASAAPARPQPVE
# modifications: left off: His6, N-terminal, cleaved | MBP, N-terminal, cleaved | intein, C-terminal, cleaved | choline-binding domain, C-terminal, cleaved
# Test system: PNPase core
# Assay: Cryo-EM of E. coli PNPase core:RNase E complex
# Type: binding
# Details: 20 mM Tris–HCl pH 8.0, 25 mM MgCl2, 150 mM KCl, 1 mM TCEP
# Method: The PNPase core encoding sequence from E. coli (aa 1–552), Salmonella enterica serovar Typhimurium (UniProt: Q8ZLT3) (aa 1–552), or Pseudomonas aeruginosa (strain PAO1, UniProt: Q9HV59) (aa 1–553) was amplified using corresponding genomic DNA as a template and cloned into pExp-Mxe-CHis expression vector. The protein of interest, produced as a fusion with C-terminal 8×His-tagged Mycobacterium xenopi GyrA intein, was expressed in Evo21(DE3) cells at 18°C overnight following induction with 0.4 mM IPTG. […] After cleavage, the protein buffer was exchanged using HiPrep 26/10 desalting column (Cytiva), and the protein solution was reapplied to Ni-NTA resin to remove His-tagged intein and uncleaved material. […]
# Purified PNPase core and RNE-muGFP-CHis proteins were mixed in 1:2 ratio and their complex were separated on the Superdex 200 Increase 10/300 GL column (Cytiva) equilibrated with cryo-EM Buffer (20 mM Tris–HCl, pH 8.0, 25 mM MgCl2, 150 mM KCl, 1 mM TCEP). […] The samples were mixed with CHAPSO (3-([3-cholamidopropyl]dimethylammonio)-2-hydroxy-1-propanesulfonate) at a final concentration of 8 mM before being applied onto R2/2 Au Ultrafoil grids (Quantifoil) that had been pre-treated by glow-discharge (PELCO easiGLOW: 60 s, 25 mA, 0.39 mBar). […]
molecule,measurement,value
B1,binding mode / stoichiometry with E. coli PNPase core,interacting with two protomers of the trimeric PNPase core
